This experiment addresses ThaI restriction endonuclease (Thermoplasma acidophilum strain ATCC 25905). Nature of the experiment: SEC. On the technique in general: Size exclusion chromatography separates by hydrodynamic size, large species first.

One may read the stoichiometry N as the number of molecules, sites or subunits per partner or assembly. In turn, ThaI restriction endonuclease (enzyme) showed a stoichiometry N of 2.

For the origin of these results see PMC3025569.
